Experimental data: paper PMC7801428 (Nature Communications, 2021)

Target: SARS-CoV-2 S trimer (stabilized S ectodomain, residues 1-1208, proline substitutions at 986 and 987, GSAS at … (SARS-CoV-2, Wuhan-Hu-1, proline substitution at residue 986 | proline substitution at residue 987 | …, biotin (EZ-Link Sulfo-NHS-LC-LC-Biotin) in the BLI experiments; not labelled for cryo-EM)
Experiment: BLI
Conditions: both partners purified

B1: human-mouse chimeric antibody 3C1 (c3C1) (antibody, V domains shown)
VH: EVQLQESGPSLVKPSQTLSLTCSVTGDSITNGYWNWIRKFPGNKLEYMGYISYSGSTYYSPSLKSRISITRDTSKNQHYLQLNSVTSEDTATYYCASDYHGSKYYFDYWGQGTTLTVSS
VL: DIVMTQSHKFMSTSVGHRVSITCKASQDVGNDVAWYQQKPGQSPKLLIYWASTRHTGVPDRFTGSGSGTDFTLTISNVQSEDLADYFCQQYNRYPYTFGGGTKLEIK
notes: also called chimeric MAb c3C1
Binder B1 has a Kd of less than 1 pM.
